# Measurements published in PMC2664085.
# Assays:
# [1] = substrate: N[C@@H](CCC(=O)N[C@@H](CSc1ccc([N+](=O)[O-])cc1[N+](=O)[O-])C(=O)NCC(=O)O)C(=O)O; assay: ATP-dependent uptake of 3H-DNPSG into RLIP76-proteoliposomes, filtration; format: biochemical, Homo sapiens; details: ATP co-substrate, 37°C, 5 min, random bi-bi fit, labelled compound
# [2] = substrate: Nc1ncnc2c1ncn2[C@@H]1O[C@H](COP(=O)(O)OP(=O)(O)OP(=O)(O)O)[C@@H](O)[C@H]1O; assay: ATP dependence of 3H-DNPSG uptake into RLIP76-proteoliposomes; format: biochemical, Homo sapiens; details: co-substrate DNP-SG, 37°C, 5 min, random bi-bi fit
protein,measurement,setting,value
recombinant RLIP76 (Homo sapiens) (protein) MTECFLPPTSSPSEHRRVEHGSGLTRTPSSEEISPTKFPGLYRTGEPSPPHDILHEPPDVVSDDEKDHGKKKGKFKKKEKRTEGYAAFQEDSSGDEAESPSKMKRSKGIHVFKKPSFSKKKEKDFKIKEKPKEEKHKEEKHKEEKHKEKKSKDLTAADVVKQWKEKKKKKKPIQEPEVPQIDVPNLKPIFGIPLADAVERTMMYDGIRLPAVFRECIDYVEKYGMKCEGIYRVSGIKSKVDELKAAYDREESTNLEDYEPNTVASLLKQYLRDLPENLLTKELMPRFEEACGRTTETEKVQEFQRLLKELPECNYLLISWLIVHMDHVIAKELETKMNIQNISIVLSPTVQISNRVLYVFFTHVQELFGNVVLKQVMKPLRWSNMATMPTLPETQAGIKEEIRRQEFLLNCLHRDLQGGIKDLSKEERLWEVQRILTALKRKLREAKRQECETKIAQEIASLSKEDVSKEEMNENEEVINILLAQENEILTEQEELLAMEQFLRRQIASEKEEIERLRAEIAEIQSRQQHGRSETEEYSSESESESEDEEELQIILEDLQRQNEELEIKNNHLNQAIHEEREAIIELRVQLRLLQMQRAKAEQQAQEDEEPEWRGGAVQPPRDGVLEPKAAKEQPKAGKEPAKPSPSRDRKETSI,Km,[1],55 ± 4 µM
same,Km,[2],4400 ± 700 µM
